Here are results for four substances from article PMC3164876.

For assay [1], the target named is SC1918/H1 (A/South Carolina/1/1918 (H1N1)) HA ectodomain (influenza A virus A/South Carolina/1/1918 (H1N1)) (UniProt Q9WFX3). In words: SPR.
Assay [2] has as its target HB80.3 (HB80 Δ54–95, Asp12Gly, Ala24Ser, Met26Thr, Asn36Lys), displayed on yeast. The experiment in a line: flow cytometry on cells. In general terms: Flow cytometry measures light scatter and fluorescence of single cells or particles in a stream.
Assay [3] has as its target HB36 Asp47Ser, displayed on yeast. The experiment in a line: flow cytometry on cells.
The target in assay [4] is HB80 Δ54–95, Met26Thr, Asn36Lys, displayed on yeast. The experiment in a line: flow cytometry on cells.
For assay [5], the target named is HB80 Asn36Lys, displayed on yeast. In words: flow cytometry on cells.
The target of assay [6] is HB80 Met26Thr, displayed on yeast. The experiment in a line: flow cytometry on cells.
Assay [7] addresses HB36.3 (HB36 Asp47Ser, Ala60Val), displayed on yeast. In words: flow cytometry on cells.
Assay [8] deals with HB36.4 (HB36 Asp47Ser, Ala60Val, Asn64Lys), displayed on yeast. The experiment in a line: flow cytometry on cells.
Assay [9] concerns the target HB80 Met26Thr Asn36Lys, displayed on yeast. The experiment in a line: flow cytometry on cells.

What is called Kd is the equilibrium constant for the complex coming apart. In [1], “HB36.3 (HB36 Asp47Ser, Ala60Val), purified from E. coli (designed binder)” came in with a Kd of 29 nM.
“HB36.4 (HB36 Asp47Ser, Ala60Val, Asn64Lys), purified from E. coli (designed binder)” registered a Kd in assay [1] of 22 nM.
In the case of “HB80.3 (HB80 Δ54–95, Asp12Gly, Ala24Ser, Met26Thr, Asn36Lys), purified from E. coli (designed binder)”, in [1], the Kd is 38 nM.
As to “SC1918/H1 (A/South Carolina/1/1918 (H1N1)) HA ectodomain (from UniProt Q9WFX3 18-529) (domain or fragment)”, the Kd amounted to 3 nM in assay [2]; 5 nM in [3]; 5 nM in assay [4]; 300 nM in assay [5]; 100 nM in assay [6]; 4 nM in [7]. The Kd is 4 nM in [8] and 7.5 nM in assay [9].
